Measurements as given in patent publication US12637517B2, “Enzyme and pathway modulation with sulfhydryl compounds and their derivatives” (HOFFMANN-LA ROCHE INC., priority 2020, dated 2026).

How the values were obtained:
FcRn = FcRn (Homo sapiens, UniProt P55899); test: Relative binding to FcRn by surface plasmon resonance (SPR); details: for Relative level of FcRn binding (at Day-14) (%): EXAMPLE-8, small-scale purified mAb from CHO L971 process, SPR
From the text: The neonatal Fe receptor (FcRn) influences the pharmacokinetic (PK) profile of IgG-type antibodies by its ability to salvage antibodies from the early endosome and recycle them back into circulation. The interaction with FcRn is considered to be the most critical factor in determining the PK of IgG-type therapeutic antibodies and is considered a surrogate for clearance (see review Nimmerjahn and Ravetch 2008).
(§1) Here, relative binding of the small-scale purified aSyn-L971-mAb samples to FcRn and FcγIIa (His131) by surface plasmon resonance (SPR) was determined. The relative binding of the small-scale purified aSyn-L971-mAb samples to the target was determined by ELISA.

Fcγ-RIIa (H131) = biological target: T1, Fcγ-RIIa (H131) (Homo sapiens, UniProt P12318); test: Relative binding to FcγIIa (His131) by surface plasmon resonance (SPR); details: for Relative level of FcyRIIa binding (at Day-14) (%): EXAMPLE-8, small-scale purified mAb from CHO L971 process, SPR, H131 allotype
T1 sequence (P12318 34-217 limits assumed): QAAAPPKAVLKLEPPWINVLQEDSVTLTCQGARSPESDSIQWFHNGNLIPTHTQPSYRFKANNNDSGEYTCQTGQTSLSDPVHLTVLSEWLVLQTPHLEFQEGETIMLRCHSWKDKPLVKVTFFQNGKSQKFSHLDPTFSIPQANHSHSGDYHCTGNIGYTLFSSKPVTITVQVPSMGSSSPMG
From the text: Fcγ-receptors are mediators of effector functions on immune effector cells. Among the different human Fcγ-receptors, Fcγ-RIIa is considered to be a dominant factor in mediating antibody dependent phagocytosis (ADCP). Of the two most prevalent allotypes of Fcγ-RIIa, the form with a histidine at amino acid position 131 (H131) is often described as the higher affinity allotype. (Nimmerjahn and Ravetch 2008, Yamada et al. 2013)
as §1

human α-synuclein = human α-synuclein (Homo sapiens, UniProt P37840); test: Relative binding to the target by ELISA; details: for Relative level of Target binding (at Day-14) (%): EXAMPLE-8, small-scale purified mAb from CHO L971 process, ELISA
Protocol: as §1

Sequence of FcRn (P55899 24-297 limits assumed): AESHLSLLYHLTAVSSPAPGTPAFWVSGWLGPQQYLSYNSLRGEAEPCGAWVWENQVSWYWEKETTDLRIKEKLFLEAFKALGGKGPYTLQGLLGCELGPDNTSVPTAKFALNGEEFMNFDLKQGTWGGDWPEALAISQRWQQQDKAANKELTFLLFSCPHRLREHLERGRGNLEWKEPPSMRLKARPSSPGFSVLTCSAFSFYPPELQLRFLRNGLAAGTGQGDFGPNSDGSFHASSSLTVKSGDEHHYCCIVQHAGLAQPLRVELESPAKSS
Sequence of FcRn (P61769 21-119 partner): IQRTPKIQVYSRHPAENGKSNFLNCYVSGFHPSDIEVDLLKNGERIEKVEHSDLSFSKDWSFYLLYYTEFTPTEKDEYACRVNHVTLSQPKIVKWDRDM

Substance	Relative level of FcRn binding (at Day-14) (%) (FcRn)	Relative level of FcyRIIa binding (at Day-14) (%) (Fcγ-RIIa (H131))	Relative level of Target binding (at Day-14) (%) (human α-synuclein)	FcRn relative binding level, higher than from the process with 3 mM L-cystine (FcRn; FIG. 11C, antibody from process with 6 mM L-cysteine vs 3 mM L-cystine)	FcRn relative binding level (FcRn; FIG. 11C, antibody from the process with 3 mM L-cystine in production medium)	FcRn relative binding level (FcRn; FIG. 11C, antibody from the process with 6 mM L-cysteine in production medium)	Fcγ-RIIa (H131) relative binding level, higher than from the process with 3 mM L-cystine (Fcγ-RIIa (H131); FIG. 11D, antibody from process with 6 mM L-cysteine vs 3 mM L-cystine)	Fcγ-RIIa (H131) relative binding level (Fcγ-RIIa (H131); FIG. 11D, antibody from the process with 3 mM L-cystine in production medium)	Fcγ-RIIa (H131) relative binding level (Fcγ-RIIa (H131); FIG. 11D, antibody from the process with 6 mM L-cysteine in production medium)	target relative binding level, higher than from the process with 3 mM L-cystine (human α-synuclein; FIG. 11E, antibody from process with 6 mM L-cysteine vs 3 mM L-cystine)	target relative binding level (human α-synuclein; FIG. 11E, antibody from the process with 3 mM L-cystine in production medium)	target relative binding level (human α-synuclein; FIG. 11E, antibody from the process with 6 mM L-cysteine in production medium)
anti-α-synuclein L971 (6 mM Cysteine): anti-human α-synuclein monoclonal antibody (Prasinezumab) from CHO L971 process with 6 mM L-cysteine in production medium	118.0	113.0	118.0									
anti-α-synuclein antibody L971: anti-human α-synuclein monoclonal antibody expressed by CHO L971 cell-line; CHO L971 cells produce Prasinezumab				about 33%	about 85%	about 118%	about 36%	about 77%	about 113%	about 35%	about 83%	about 118%
anti-α-synuclein L971 (3 mM Cystine): anti-human α-synuclein monoclonal antibody (Prasinezumab) from CHO L971 process with 3 mM L-cystine in production medium	85.0	77.0	83.0									
